Experimental data: the supplement of paper PMC9170038

Test system: MS2 coat protein
Assay: apparent KD of MS2 coat protein; designed switch direction (-1 OFF switch, 1 ON switch): -1; higher = weaker reporter binding
How it was run: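 Designed RNA switches sharing common flanks were transcribed on Illumina chips by stalled E. coli RNA polymerase. They were titrated with SNAP-549-labelled MS2 coat protein, from 0.7 or 1.5 nM doubling to 3 µM, in Tris-HCl pH 7.5 buffer with KCl, MgCl2, BSA, DTT, tRNA and Tween-20. Titrations ran without input, with 200 uM small-molecule ligand, or with an oligonucleotide input. The apparent KD of each design is the median over its clusters, after curve-fitting of normalised cluster fluorescence.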

[1] = Eterna round: R95, input ligand: microRNA oligo, concentration not stated
[2] = input ligand: microRNA oligo, concentration not stated

UCCUCACAUGAGGAUCACCCAUGUCAGGAUAUACGAACGGUAAGUGACAAUCGAUUACGUAGAAGGGACUGCGG [Eternabot (L1) Solution 78] (Eterna round: R97, puzzle: Exclusion 1)
apparent KD of MS2 coat protein (input ligand: FMN 200 uM): 110 nM | apparent KD of MS2 coat protein (input ligand: none): 121 nM

UCCUCACAUGAGGAUCACCCAUGUGAGGAUAUCAUGCUUCGUAGUAAACUACGAAGUGUGAGAAGGCACAUGGC [Omei Ex1 D15] (Eterna round: R97, puzzle: Exclusion 1)
apparent KD of MS2 coat protein (input ligand: FMN 200 uM): 23.9 nM | apparent KD of MS2 coat protein (input ligand: none): 19.6 nM

UCCUCACAUGAGGAUCACCCAUGUUAGGAUAUCUUAGAGCGCGAAAGACAGUUCUUUAAGAGAAGGAACUGGGC [Exclusion 1 (MOD1 of Edarti)] (Eterna round: R97, puzzle: Exclusion 1)
apparent KD of MS2 coat protein (input ligand: FMN 200 uM): 54 nM | apparent KD of MS2 coat protein (input ligand: none): 22.4 nM

UCCUCCUAAGGAUAUGCGUCGGUUGAACUAUGCUAAAAGGGACAUGAGGAUCACCCAUGUAGAAGGUAGGGCAG [Eternabot (L2) Solution 86] (Eterna round: R97, puzzle: Exclusion 2)
apparent KD of MS2 coat protein (input ligand: FMN 200 uM): 72.5 nM | apparent KD of MS2 coat protein (input ligand: none): 48.8 nM

UCCUCGUCAGGAUAUGUCUCGACGCGGUCCGCGUGCGGUCAACAGAAGGGACAUGAGGAUCACCCAUGUGCAGA [Eternabot (Original) Solution 38] (Eterna round: R97, puzzle: Exclusion 4)
apparent KD of MS2 coat protein (input ligand: FMN 200 uM): 228 nM | apparent KD of MS2 coat protein (input ligand: none): 204 nM

UCCUGGCGAGGAUAUACAAAGAUUUUUUCGUUUUGUUUCGAACAUGAGGAUCACCCAUGUAGAAGGUGCUGCUG [JR_Ex2_Sub015] (Eterna round: R97, puzzle: Exclusion 2)
apparent KD of MS2 coat protein (input ligand: FMN 200 uM): 46.4 nM | apparent KD of MS2 coat protein (input ligand: none): 46.7 nM

UCCUUACAUGAGGAUCACCCAUGUCAGGAUAUCUCCACACUGCGCUUGCGCAGUGUAUAGAGAAGGGACGGGCU [JL ViennaUCT Aner mod 7] (puzzle: Exclusion 1)
apparent KD of MS2 coat protein [1]: 28.5 nM

UCGAAGCUAGGAUAUACAUGAGGAUCACCCAUGUGAGUAAUAACUUGGAGAUACCUCCGUAGAAGGAGCACAAA [Beatdienat] (puzzle: Exclusion 3)
apparent KD of MS2 coat protein (Eterna round: R95, input ligand: FMN 200 uM): 310 nM | apparent KD of MS2 coat protein [1]: 107 nM | apparent KD of MS2 coat protein (Eterna round: R95, input ligand: none): 125 nM

UCGCCGCCCUUGGGCGGCGACAUGAGGAUCACCCAUGUCAAGCUUUUUGCUCGUUUUAUUGCCGGCCUUGGCCGGCU [Olib_2] (Eterna round: R97, puzzle: Sensor, turn-off variant 1)
apparent KD of MS2 coat protein (input ligand: FMN 200 uM): 28.3 nM | apparent KD of MS2 coat protein (input ligand: none): 33.2 nM

UCGGAUUCAGGAUAUUGCACAUGUGACAUGAGGAUCACCCAUGUUCCCUUAUUUGGUCACCAAGAAGGGAGUUUAU [Eternabot (L2) Solution 34] (Eterna round: R97, puzzle: Exclusion 5)
apparent KD of MS2 coat protein (input ligand: FMN 200 uM): 157 nM | apparent KD of MS2 coat protein (input ligand: none): 152 nM

UCGGCGCGAGGAUAUACGUUUGCGCUUUUUCGUUUUUGUGUACAUGAGGAUCACCCAUGUAGAAGGCGCGCCGC [Apr-15 SS2-18] (puzzle: Exclusion 2)
apparent KD of MS2 coat protein [1]: 14.9 nM

UCGGCGCGAGGAUAUACGUUUGCUUUUUUGUGUCGUUGCGUACAUGAGGAUCACCCAUGUAGAAGGCGCGCCGC [Apr-15 SS2-24] (puzzle: Exclusion 2)
apparent KD of MS2 coat protein [1]: 16 nM

UCGGCGCGAGGAUAUGCGGUUUGUGCUUCGGGCCCUCGCGUACAUGAGGAUCACCCAUGUAGAAGGCGCGCCGC [Apr-15 SS2-45] (puzzle: Exclusion 2)
apparent KD of MS2 coat protein [1]: 75.2 nM

UCGGCGCGAGGAUAUGCGGUUUGUGCUUUGGGCCCUGGCGUACAUGAGGAUCACCCAUGUAGAAGGCGCGUUGC [Apr-15 SS2-48] (puzzle: Exclusion 2)
apparent KD of MS2 coat protein [1]: 17.1 nM

UCGGGUAGAGGAUAUACAUAGAAAUAGAUUCAUGUAAAACUACAUGAGGAUCACCCAUGUAGAAGGCUAUCCGU [Mat - Exclusion 2 - JL Mod - D56] (Eterna round: R97, puzzle: Exclusion 2)
apparent KD of MS2 coat protein (input ligand: FMN 200 uM): 164 nM | apparent KD of MS2 coat protein (input ligand: none): 27.2 nM

UCGUGAUUAGAGGAUAUAUUAAGAGUCAGAACAAUAGAAGGCUAAACAUGAGGAUCACCCAUGUAAAUGUGAAA [JR_Ex6_Sub060] (Eterna round: R97, puzzle: Exclusion 6)
apparent KD of MS2 coat protein (input ligand: FMN 200 uM): 172 nM | apparent KD of MS2 coat protein (input ligand: none): 35.5 nM

UCGUGAUUAGAGGAUAUAUUAAGGGUCAGAACAAUAGAAGGCUAAACAUGAGGAUCACCCAUGUAAAUGGUUUU [JR_Ex6_Sub058] (Eterna round: R97, puzzle: Exclusion 6)
apparent KD of MS2 coat protein (input ligand: FMN 200 uM): 183 nM | apparent KD of MS2 coat protein (input ligand: none): 70.7 nM

UCGUGAUUAGAGGAUAUAUUUUGAGUCAGAACAAUAGAAGGCUAAACAUGAGGAUCACCCAUGUAUAUGUGUAA [JR_Ex6_Sub062] (Eterna round: R97, puzzle: Exclusion 6)
apparent KD of MS2 coat protein (input ligand: FMN 200 uM): 140 nM | apparent KD of MS2 coat protein (input ligand: none): 46.7 nM

UCGUUUUUUGAGGAUAUGCGACGUUUUUUCGUCGUAGAAGGCGAUACAUGAGGAUCACCCAUGUUUAUGGGCAU [LRO-Ex6-15] (puzzle: Exclusion 6)
apparent KD of MS2 coat protein [1]: 148 nM

UCUAACCAUGUAGGAUAUGCGUGGCUAAGCUAUGCAGAAGGACAUGAGGAUCACCCAUGUGCCUCCGUCUGCGUACAGUCGGCU [EXclNG1-LROPPY01] (Eterna round: R96, puzzle: Exclusion NG 1)
apparent KD of MS2 coat protein (input ligand: FMN 200 uM): 15.5 nM | apparent KD of MS2 coat protein [2]: 11.2 nM | apparent KD of MS2 coat protein (input ligand: none): 18.5 nM

UCUCGCAGGCAAGGAUAUCCUACAUUGUUCUGGCCCGGGCAUGUUACAUGAGGAUCACCCAUGUGGGAGAAGGUGCGCCACGGC [Design 33] (Eterna round: R96, puzzle: Exclusion NG 2)
apparent KD of MS2 coat protein (input ligand: FMN 200 uM): 196 nM | apparent KD of MS2 coat protein [2]: 175 nM | apparent KD of MS2 coat protein (input ligand: none): 100 nM

UCUCGCGUCGAGGAUAUAUCGUGUAAGUGCGCGAUAGAAGGCGACACAUGAGGAUCACCCAUGUAGGGCCGAAC [Eternabot (Original) Solution 14] (Eterna round: R97, puzzle: Exclusion 6)
apparent KD of MS2 coat protein (input ligand: FMN 200 uM): 149 nM | apparent KD of MS2 coat protein (input ligand: none): 23.2 nM

UCUCGUAGGCAAGGAUAUCCUACAUUGUUCUGGCCCGGGCAUGCUACAUGAGGAUCACCCAUGUGGGAGAAGGUGCGCCACUGC [Design 27] (Eterna round: R96, puzzle: Exclusion NG 2)
apparent KD of MS2 coat protein (input ligand: FMN 200 uM): 52.4 nM | apparent KD of MS2 coat protein [2]: 39.7 nM | apparent KD of MS2 coat protein (input ligand: none): 36.2 nM

UCUCUUGGGCAAGGAUAUCCUGCGCGGUUCCGGUUCGUGUCUGUCACAUGAGGAUCACCCAUGUGGGAGAAGGUGCCUGCGGUU [Design 76] (Eterna round: R96, puzzle: Exclusion NG 2)
apparent KD of MS2 coat protein [2]: 13.1 nM

UCUGGGUCUGUGAGGAUAUCGGGCCCGAAAGGGCCCGAGAAGGCACAUGAGGAUCACCCAUGUAAGGGCUCGGG [-38.4, -36.3 kcal, A 23%, 0-7bis] (Eterna round: R97, puzzle: Brourd's mod of Exclusion 4)
apparent KD of MS2 coat protein (input ligand: FMN 200 uM): 20.3 nM | apparent KD of MS2 coat protein (input ligand: none): 25 nM

UCUUACUGAGGAUAUACAUAGAUUUACAUGAGGAUCACCCAUGUUCCUCUAUGUAUAAAUGUAGAAGGCAGAAGAA [Mat - Exclusion 5 - JL Mod - D53] (Eterna round: R97, puzzle: Exclusion 5)
apparent KD of MS2 coat protein (input ligand: FMN 200 uM): 82.6 nM | apparent KD of MS2 coat protein (input ligand: none): 17.8 nM

UCUUAGCAAGCAAAUGGGUACAUGAGGAUCACCCAUGUGCUCGUCUUAUAAGGUACUGUGACGAAAGUCACGGUACC [mod--Eli8] (Eterna round: R97, puzzle: Sensor, turn-off variant 1)
apparent KD of MS2 coat protein (input ligand: FMN 200 uM): 24.7 nM | apparent KD of MS2 coat protein (input ligand: none): 19.5 nM

UCUUUGUUUGUGAGGAUAUCGGUGGGAUGGGUUGUCGAGAAGGCACAUGAGGAUCACCCAUGUGAGGGACAGCA [JR_BMEx4_Sub028] (Eterna round: R97, puzzle: Brourd's mod of Exclusion 4)
apparent KD of MS2 coat protein (input ligand: FMN 200 uM): 16.6 nM | apparent KD of MS2 coat protein (input ligand: none): 16.2 nM

UGAAUACGUGUUAGGAUAUGGUUUGGUAUUUCGGGCUAGAAGGGACAUGAGGAUCACCCAUGUAAUUGAUAGGU [-16.2, -13.6 kcal, 27% A] (Eterna round: R97, puzzle: Brourd's mod of Exclusion 4)
apparent KD of MS2 coat protein (input ligand: FMN 200 uM): 52.4 nM | apparent KD of MS2 coat protein (input ligand: none): 38.5 nM

UGAGUGCUGCGAGGAUAUACAUGAGGAUCACCCAUGUAAUCGUGUGAGGCAAAGCCUCACACGAAGUAGAAGGCGCAGUACUCU [Mat - Exclusion NG 2 - Mod of JL - D17] (Eterna round: R96, puzzle: Exclusion NG 2)
apparent KD of MS2 coat protein (input ligand: FMN 200 uM): 16 nM | apparent KD of MS2 coat protein [2]: 11.4 nM | apparent KD of MS2 coat protein (input ligand: none): 18.5 nM

UGAGUGCUGCGAGGAUAUACAUGAGGAUCACCCAUGUAAUCGUGUGAGGCUAUGCCUCACACGAAGUAGAAGGCGCAGUACUCU [Mat - Exclusion NG 2 - Mod of JL - D16] (Eterna round: R96, puzzle: Exclusion NG 2)
apparent KD of MS2 coat protein (input ligand: FMN 200 uM): 9.98 nM | apparent KD of MS2 coat protein [2]: 8.33 nM | apparent KD of MS2 coat protein (input ligand: none): 9.63 nM

UGAUCUAGCGGAGGAUAUACAUGAGGAUCACCCAUGUAAAUCGCUUUACCGUAGUGAAGCAUCAUGUAGAAGGCCGCUAGAUCU [MOD3 ENG2 3.62 by JL] (Eterna round: R96, puzzle: Exclusion NG 2)
apparent KD of MS2 coat protein (input ligand: FMN 200 uM): 59.3 nM | apparent KD of MS2 coat protein [2]: 480 nM | apparent KD of MS2 coat protein (input ligand: none): 592 nM

UGAUCUAGCGGAGGAUAUACAUGAGGAUCACCCAUGUAGAAUCCAUGACCGUAGUCGUGGAUCGUGUAGAAGGCCGCUAGAUCU [JL ENG2 3.71] (Eterna round: R96, puzzle: Exclusion NG 2)
apparent KD of MS2 coat protein (input ligand: FMN 200 uM): 21.8 nM | apparent KD of MS2 coat protein [2]: 9 nM | apparent KD of MS2 coat protein (input ligand: none): 12.5 nM

UGAUCUAGCGGAGGAUAUACAUGAGGAUCACCCAUGUAGAUAACUGCACCGUAGUGUAGUAUUGUGUAGAAGGCCGCUAGAUCU [JL ENG2 3.65] (Eterna round: R96, puzzle: Exclusion NG 2)
apparent KD of MS2 coat protein (input ligand: FMN 200 uM): 26.8 nM | apparent KD of MS2 coat protein [2]: 11.4 nM | apparent KD of MS2 coat protein (input ligand: none): 14.2 nM
